Measurements as given in article PMC12269497, “Dimerization of the BAR domain–containing protein FAM92A modulates lipid binding and interaction with CBY1” (The Journal of Biological Chemistry, 2025).
Values belong to the molecule of their own block, whether it stands above or below them.

Key:
[1] = target: mouse FAM92A BAR domain (amino acids 70-283), untagged (mouse); assay: ITC; CBY1 variants (200–300 μM) in the syringe, FAM92A BAR or its dimerization mutants (100–120 μM) in the cell; 25 °C; 50 mM Tris pH 7.5, 1 mM DTT, 1 mM EDTA, 100 mM NaCl; one-site binding model
[2] = target: Trx-Strep-tagged mouse FAM92A BAR domain (amino acids 70-283) (mouse); assay: BLI; Trx-Strep-tagged FAM92A BAR (1 μM) loaded on Strep-Tactin XT probes, His-tagged CBY1 variants in solution; PBS with 0.02% Tween-20 and 0.2% BSA; 1:1 binding model
[3] = target: Trx-tagged full-length mouse FAM92A (mouse); assay: SEC-MALS; typically 200 μl at 70 μM injected; Superose 12 10/300 GL; 50 mM Tris pH 7.5, 1 mM DTT, 1 mM EDTA, 100 mM NaCl
[4] = target: mouse FAM92A BAR domain (amino acids 70-283), untagged (mouse); assay: as above
[5] = target: mouse FAM92A BAR domain Mu1 (K176, K178, R179 to glutamic acid) (mouse); assay: as above
[6] = target: mouse FAM92A BAR domain Mu2 (R201, R203, R205 to glutamic acid) (mouse); assay: as above
[7] = target: mouse FAM92A BAR domain Mu3 (R108, K109, R112, R114, K116 to glutamic acid) (mouse); assay: as above
[8] = target: mouse FAM92A BAR domain Mu4 (K169, K183, K194 to glutamic acid) (mouse); assay: as above
[9] = target: mouse FAM92A BAR domain Mu5 (R72, K83, K94 to glutamic acid) (mouse); assay: as above
[10] = target: the molecule itself; assay: as above
[11] = target: T1, Trx-Strep-tagged mouse FAM92A BAR domain (amino acids 70-283) (mouse); assay: BLI
T1 chain: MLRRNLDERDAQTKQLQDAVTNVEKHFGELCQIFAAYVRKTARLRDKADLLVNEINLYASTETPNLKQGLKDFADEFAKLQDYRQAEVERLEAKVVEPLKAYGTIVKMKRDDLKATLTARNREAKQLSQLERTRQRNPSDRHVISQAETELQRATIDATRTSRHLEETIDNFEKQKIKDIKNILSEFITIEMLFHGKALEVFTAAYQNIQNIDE

Kd [1]: 2.8 µM
Kd [2]: 5.6 µM
Molecule: MBP-His-tagged mouse CBY1 4E (L77E, L84E, L91E, L98E) (from UniProt Q9D1C2 1-127) (natural protein)

stoichiometry N [3]: 2
Molecule: Trx-tagged full-length mouse FAM92A (natural protein)

stoichiometry N [4]: 2
Molecule: mouse FAM92A BAR domain (amino acids 70-283), untagged (domain or fragment)

stoichiometry N [5]: 2
Molecule: mouse FAM92A BAR domain Mu1 (K176, K178, R179 to glutamic acid) (domain or fragment)

stoichiometry N [6]: 2
Molecule: mouse FAM92A BAR domain Mu2 (R201, R203, R205 to glutamic acid) (domain or fragment)

stoichiometry N [7]: 2
Molecule: mouse FAM92A BAR domain Mu3 (R108, K109, R112, R114, K116 to glutamic acid) (domain or fragment)

stoichiometry N [8]: 2
Molecule: mouse FAM92A BAR domain Mu4 (K169, K183, K194 to glutamic acid) (domain or fragment)

stoichiometry N [9]: 2
Molecule: mouse FAM92A BAR domain Mu5 (R72, K83, K94 to glutamic acid) (domain or fragment)

Kd [1]: 0.15 µM
Kd [2]: 0.25 µM
B1: MBP-His-tagged full-length mouse Chibby1 (CBY1) (natural protein, UniProt Q9D1C2 1-127, looked up)
chain: MPLFGSIFSPKKTPPRKSASLSNLHSLDRSTRELELGLDYGTPTMNLAGQSLKFENGQWVADSVISGGVDRRETQRLRKRNQQLEEENNLLRLKVDILLDMLSETTAESHLKDKELDELKVTNRRRK
notes: mouse CBY1, GenBank NP_082910.1, amino acids 1-127; also called CBY1 FL; CBY1-FL; source: E. coli BL21 (DE3), purified (Ni-NTA, SEC); not shown: MBP, N-terminal, kept; His6, N-terminal, kept
stoichiometry N [10]: 2

B2: Trx-tagged mouse CBY1 coiled-coil domain (amino acids 61-127) (domain or fragment, UniProt Q9D1C2 61-127, looked up)
chain: ADSVISGGVDRRETQRLRKRNQQLEEENNLLRLKVDILLDMLSETTAESHLKDKELDELKVTNRRRK
notes: mouse CBY1, GenBank NP_082910.1, amino acids 61-127 (C-terminal coiled-coil domain); also called CBY1 CC; source: E. coli BL21 (DE3), purified; not shown: Trx, N-terminal, kept
stoichiometry N [10]: 2

Kd [1]: 3.6 µM
Kd [2]: 10 µM
Kd [11]: 10.8 µM
B3: Trx-His-tagged mouse CBY1 N-terminal region (amino acids 1-70) (domain or fragment)
chain: MPLFGSIFSPKKTPPRKSASLSNLHSLDRSTRELELGLDYGTPTMNLAGQSLKFENGQWVADSVISGGVD
